Measurements published in paper doi:10.1101/2020.04.07.023903.

Target: SARS-CoV-2 S glycoprotein, full length, expressed at the surface of ExpiCHO cells (SARS-CoV-2 (isolate BetaCoV/Wuhan-Hu-1/2019)) (UniProt P0DTC2)

Substance	neutralization of SARS-CoV-2-MLV pseudovirus (transduction), IC50 [nM]	neutralization of SARS-CoV-2-MLV pseudovirus, plateau of neutralization [%]	neutralization of SARS-CoV-2-MLV pseudovirus, maximal neutralization [%]
S309 Fab fragment	3.8	80	–
S309 full-length IgG1 (rIgG-LS) (antibody)	3.5	–	100
